Columns and labels:
Nc1ccccc1C(=O)O = assay: purified protein; format: biochemical, Thermococcus kodakarensis; conditions: 1 mM PRPP, 100 μM ZnCl2, 100 mM Tris/HCl pH 8.5, 55 °C
purified protein = substrate: O=P(O)(O)OC[C@H]1O[C@H](OP(=O)(O)OP(=O)(O)O)[C@H](O)[C@@H]1O; assay: purified protein; format: biochemical, Thermococcus kodakarensis; conditions: 4 μM anthranilate, 100 μM ZnCl2, 100 mM Tris/HCl pH 8.5, 55 °C

Molecule	Km (Nc1ccccc1C(=O)O) [µM]	Km (purified protein) [µM]
TkTrpD (Thermococcus kodakarensis KOD1)	2.2	
TkTrpD (Thermococcus kodakarensis KOD1) (protein, homodimer) MSLLAKIVDGKNLSFEEAYELFNELKGSDGVLIGAYLAALQTKGYTGEELAGLARAMRDSAVKLDLGKVADTAGTGGDGSSTINVSTASALILSAFTRVAKHGNVSITSKSGSANVLEALGLNIRVSPERAREMVESTNFTFIFAPAYHPALRPIMPVRKALGIKTVFNVIGPLANPADPAYQVVGVNSPELLEPVAEALEFLGVERALVVHGSGMDEVSPHRETLVLEVGNGVERYTLSPEDFGIEPVKPLPCSSPEESAARIKAVLGGSGRREDRDFILVNASAALYASGVAEDFREGLEMAREALGQGMLEKLEEIACLSKS		250

— paper PMC5537072, “Anthranilate phosphoribosyltransferase from the hyperthermophilic archaeon Thermococcus kodakarensis shows maximum activity with zinc and forms a unique dimeric structure” (FEBS Open Bio, 2017)
